{"source": "paper PMC5466818", "origin": "cited, not measured here", "target": "formin Bnr1 (Saccharomyces cerevisiae) (UniProt P40450)", "sequence (P40450 whole entry)": "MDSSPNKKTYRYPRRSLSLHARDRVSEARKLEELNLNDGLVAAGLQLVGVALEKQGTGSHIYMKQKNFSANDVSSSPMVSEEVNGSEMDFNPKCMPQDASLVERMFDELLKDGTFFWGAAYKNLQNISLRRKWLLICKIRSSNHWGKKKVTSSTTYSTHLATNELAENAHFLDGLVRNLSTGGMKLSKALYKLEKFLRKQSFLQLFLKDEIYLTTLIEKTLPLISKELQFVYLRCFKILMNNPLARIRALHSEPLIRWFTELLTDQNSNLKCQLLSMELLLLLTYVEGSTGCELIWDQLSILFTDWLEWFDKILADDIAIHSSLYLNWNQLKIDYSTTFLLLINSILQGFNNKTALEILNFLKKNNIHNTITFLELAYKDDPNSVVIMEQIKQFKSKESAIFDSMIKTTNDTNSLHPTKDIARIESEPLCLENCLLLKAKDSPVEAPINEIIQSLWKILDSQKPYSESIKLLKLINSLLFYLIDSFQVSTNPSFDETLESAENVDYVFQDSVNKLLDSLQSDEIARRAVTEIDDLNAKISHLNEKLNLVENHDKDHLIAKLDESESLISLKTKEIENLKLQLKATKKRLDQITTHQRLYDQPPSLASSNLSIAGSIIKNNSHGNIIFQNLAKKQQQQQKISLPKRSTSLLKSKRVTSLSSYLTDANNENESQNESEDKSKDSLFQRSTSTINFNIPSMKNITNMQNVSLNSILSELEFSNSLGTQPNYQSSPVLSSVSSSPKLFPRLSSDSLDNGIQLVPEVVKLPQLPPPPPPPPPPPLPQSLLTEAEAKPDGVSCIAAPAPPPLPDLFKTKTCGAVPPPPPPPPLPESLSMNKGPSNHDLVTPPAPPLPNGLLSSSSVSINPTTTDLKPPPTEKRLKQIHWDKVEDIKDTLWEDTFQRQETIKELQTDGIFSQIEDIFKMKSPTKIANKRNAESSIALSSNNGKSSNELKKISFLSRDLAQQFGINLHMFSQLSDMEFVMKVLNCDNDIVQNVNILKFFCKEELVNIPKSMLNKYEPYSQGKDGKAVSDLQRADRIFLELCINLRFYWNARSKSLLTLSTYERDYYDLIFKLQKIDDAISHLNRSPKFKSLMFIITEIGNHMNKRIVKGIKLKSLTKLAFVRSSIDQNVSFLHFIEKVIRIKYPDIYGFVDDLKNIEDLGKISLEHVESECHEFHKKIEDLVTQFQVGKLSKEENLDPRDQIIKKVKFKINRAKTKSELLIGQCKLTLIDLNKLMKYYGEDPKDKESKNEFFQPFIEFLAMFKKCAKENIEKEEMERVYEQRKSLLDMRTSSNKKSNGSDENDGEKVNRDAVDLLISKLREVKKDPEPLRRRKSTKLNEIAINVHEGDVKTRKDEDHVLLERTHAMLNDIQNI", "data": [{"substance": "Bud14 (from UniProt P27637)", "values": [{"measurement": "Kd", "value": 15, "unit": "nM"}]}]}
